Data published in PMC3099715 (The Journal of Biological Chemistry, 2011).
Like-named read-outs stand apart in the source and are kept apart here. One block for each molecule: values may come before it. No end group written: not given here. fluorescein = fluorescein fluorophore covalently attached to the cysteine residue

Assays:
[1] = target: fluorescein-labeled P5 peptide (F-P5) (chicken); test: fluorescence polarisation
[2] = target: fluorescein-labeled Isu1 peptide (F-Isu1) (S. cerevisiae); test: fluorescence polarisation
[3] = target: fluorescein-labeled P5 peptide (F-P5) (chicken); test: fluorescence polarisation; remark: listed apart in the source
[4] = target: T1, Ssc1 (mitochondrial heat shock protein 70 of Saccharomyces cerevisiae) (S. cerevisiae, UniProt P0CS90 24-654); test: pull-down
[5] = target: T1, Ssc1 (mitochondrial heat shock protein …); test: fluorescence polarisation
[6] = target: T1, Ssc1 (mitochondrial heat shock protein …); test: fluorescence polarisation; remark: listed apart in the source
[7] = target: T1, Ssc1 (mitochondrial heat shock protein …); test: fluorescence polarisation; remark: listed apart in the source
[8] = target: T1, Ssc1 (mitochondrial heat shock protein …); test: fluorescence polarisation; remark: listed apart in the source
[9] = target: T2, substrate-binding domain of Ssc1, Ssc1(418–654) (S. cerevisiae, UniProt P0CS90 418-654); test: fluorescence polarisation
T2 sequence (looked up): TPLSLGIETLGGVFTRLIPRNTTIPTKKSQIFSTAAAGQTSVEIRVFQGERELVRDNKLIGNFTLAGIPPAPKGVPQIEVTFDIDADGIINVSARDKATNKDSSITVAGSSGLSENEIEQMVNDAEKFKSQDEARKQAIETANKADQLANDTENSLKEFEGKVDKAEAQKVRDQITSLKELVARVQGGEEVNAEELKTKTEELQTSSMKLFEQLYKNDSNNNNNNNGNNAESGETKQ

Kd [5]: 7.07 ± 0.872 µM
Molecule: LSLPPVKLHC(fluorescein) [fluorescein-labeled Isu1 peptide (F-Isu1)]

Kd [6]: 30.9 ± 2.6 µM
Kd [7]: 0.231 ± 0.014 µM
koff [8]: 0.003 s⁻¹
Kd [9]: 0.264 ± 0.041 µM
Molecule: CALLLSAPRR (fluorescein fluorophore covalently attached to the cysteine residue) [fluorescein-labeled P5 peptide (F-P5)]

The next lines start with the molecule.

Molecule: SBD_(Ssc1)-(ABCD)_(Ssc3) chimera (variable domain of the SBD of Ssc1 replaced with that of Ssc3) (domain or fragment)
Kd [1]: 22.7 µM

Molecule: Ssc3 (mitochondrial Hsp70 paralog of Saccharomyces cerevisiae) (natural protein)
Kd [2]: > 90 µM
Kd [1]: 30.1 µM
koff [1]: 0.244 s⁻¹
Kd [3]: 26.3 µM

B1: GST-Hep1 (yeast Hep1 co-chaperone) (natural protein, yeast (S. cerevisiae), UniProt P42844 48-174, looked up)
chain: NEVKKDDKKVHLGSFKVDKPKMMIAFTCKKCNTRSSHTMSKQAYEKGTVLISCPHCKVRHLIADHLKIFHDHHVTVEQLMKANGEQVSQDVGDLEFEDIPDSLKDVLGKYAKNNSENASQLPHPSQK
Kd [4]: ~1.5 µM
